Test results taken from US20250289869.

Legend:
[1] = tested on: FVIII169/VWF057 heterodimer
[2] = tested on: FVIII169/VWF059 heterodimer
Chain of FVIII169/VWF059 heterodimer (chain, as listed by the source, chain 1 of 2): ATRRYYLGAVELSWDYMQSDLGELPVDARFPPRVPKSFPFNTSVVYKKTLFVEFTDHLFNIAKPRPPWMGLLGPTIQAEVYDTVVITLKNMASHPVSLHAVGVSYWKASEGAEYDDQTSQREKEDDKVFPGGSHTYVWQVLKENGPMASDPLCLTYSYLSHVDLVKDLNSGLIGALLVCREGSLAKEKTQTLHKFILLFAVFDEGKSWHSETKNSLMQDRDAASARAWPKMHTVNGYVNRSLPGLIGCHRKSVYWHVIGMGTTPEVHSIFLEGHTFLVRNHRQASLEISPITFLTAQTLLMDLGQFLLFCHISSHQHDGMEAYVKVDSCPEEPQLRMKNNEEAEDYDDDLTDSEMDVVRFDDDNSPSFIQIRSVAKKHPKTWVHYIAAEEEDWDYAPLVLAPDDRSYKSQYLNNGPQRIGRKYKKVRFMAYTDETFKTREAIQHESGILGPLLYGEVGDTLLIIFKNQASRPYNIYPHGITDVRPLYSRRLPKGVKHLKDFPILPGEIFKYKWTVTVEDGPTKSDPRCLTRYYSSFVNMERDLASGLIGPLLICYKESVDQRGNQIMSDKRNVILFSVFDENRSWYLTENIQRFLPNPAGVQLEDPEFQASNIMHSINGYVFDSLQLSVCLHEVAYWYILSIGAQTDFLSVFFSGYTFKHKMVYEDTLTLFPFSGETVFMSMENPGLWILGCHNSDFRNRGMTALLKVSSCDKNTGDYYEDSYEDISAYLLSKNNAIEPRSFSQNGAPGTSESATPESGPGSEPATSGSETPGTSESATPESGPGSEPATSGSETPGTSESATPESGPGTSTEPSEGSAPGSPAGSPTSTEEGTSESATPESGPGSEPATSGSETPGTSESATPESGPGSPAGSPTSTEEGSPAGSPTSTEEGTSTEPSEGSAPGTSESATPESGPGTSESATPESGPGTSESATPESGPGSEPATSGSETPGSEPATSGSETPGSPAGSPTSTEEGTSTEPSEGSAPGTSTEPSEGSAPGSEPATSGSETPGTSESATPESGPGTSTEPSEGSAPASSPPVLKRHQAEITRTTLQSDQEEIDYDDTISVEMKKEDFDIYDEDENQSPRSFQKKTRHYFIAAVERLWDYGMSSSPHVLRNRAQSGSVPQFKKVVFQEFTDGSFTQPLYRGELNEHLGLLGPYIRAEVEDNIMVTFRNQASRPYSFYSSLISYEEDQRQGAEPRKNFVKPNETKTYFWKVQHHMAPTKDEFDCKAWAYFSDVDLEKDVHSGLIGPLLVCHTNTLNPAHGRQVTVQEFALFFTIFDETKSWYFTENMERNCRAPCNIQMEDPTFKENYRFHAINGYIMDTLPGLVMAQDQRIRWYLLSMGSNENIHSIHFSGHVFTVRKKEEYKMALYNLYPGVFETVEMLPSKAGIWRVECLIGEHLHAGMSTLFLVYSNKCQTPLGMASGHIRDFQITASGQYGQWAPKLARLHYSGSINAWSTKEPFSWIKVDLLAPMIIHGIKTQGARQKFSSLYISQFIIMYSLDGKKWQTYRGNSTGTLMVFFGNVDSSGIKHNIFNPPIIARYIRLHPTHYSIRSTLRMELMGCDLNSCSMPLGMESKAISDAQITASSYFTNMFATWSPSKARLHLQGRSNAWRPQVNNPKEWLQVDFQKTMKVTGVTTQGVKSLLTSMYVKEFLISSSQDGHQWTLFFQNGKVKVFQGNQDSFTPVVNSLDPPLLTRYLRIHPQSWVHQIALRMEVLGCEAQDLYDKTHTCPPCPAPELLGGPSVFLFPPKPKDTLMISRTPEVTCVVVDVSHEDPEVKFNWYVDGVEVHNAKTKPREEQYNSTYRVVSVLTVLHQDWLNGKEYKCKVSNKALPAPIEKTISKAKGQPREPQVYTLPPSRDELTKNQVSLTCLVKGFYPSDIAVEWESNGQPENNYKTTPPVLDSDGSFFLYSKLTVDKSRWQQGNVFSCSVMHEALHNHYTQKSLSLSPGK
Chain of FVIII169/VWF059 heterodimer (chain, as listed by the source, chain 2 of 2): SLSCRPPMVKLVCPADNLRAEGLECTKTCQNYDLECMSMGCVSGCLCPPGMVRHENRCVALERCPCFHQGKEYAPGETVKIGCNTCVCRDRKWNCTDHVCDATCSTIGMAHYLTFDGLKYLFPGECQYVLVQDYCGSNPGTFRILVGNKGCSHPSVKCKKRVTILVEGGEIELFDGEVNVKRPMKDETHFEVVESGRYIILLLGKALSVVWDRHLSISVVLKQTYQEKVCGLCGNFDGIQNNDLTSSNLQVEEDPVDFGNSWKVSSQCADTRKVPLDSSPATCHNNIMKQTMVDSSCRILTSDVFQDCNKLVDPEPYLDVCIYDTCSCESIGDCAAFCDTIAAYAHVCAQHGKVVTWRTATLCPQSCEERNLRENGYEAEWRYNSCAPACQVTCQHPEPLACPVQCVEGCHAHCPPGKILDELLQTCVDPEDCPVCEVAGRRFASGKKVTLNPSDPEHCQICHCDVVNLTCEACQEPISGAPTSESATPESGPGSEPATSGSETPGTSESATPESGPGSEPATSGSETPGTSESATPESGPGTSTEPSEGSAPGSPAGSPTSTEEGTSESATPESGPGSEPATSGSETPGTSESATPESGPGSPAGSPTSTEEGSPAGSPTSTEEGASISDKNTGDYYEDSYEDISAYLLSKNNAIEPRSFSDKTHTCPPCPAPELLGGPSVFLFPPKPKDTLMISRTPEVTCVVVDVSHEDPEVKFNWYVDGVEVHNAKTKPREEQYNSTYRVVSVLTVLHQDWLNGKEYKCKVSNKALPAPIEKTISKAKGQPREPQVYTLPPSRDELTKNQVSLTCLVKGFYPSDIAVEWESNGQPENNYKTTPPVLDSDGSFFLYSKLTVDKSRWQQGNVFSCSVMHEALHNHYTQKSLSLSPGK

Chain of FVIII169/VWF057 heterodimer (chain, as listed by the source, chain 1 of 2): as the sequence (chain, as listed by the source, chain 1 of 2) above
Chain of FVIII169/VWF057 heterodimer (chain, as listed by the source, chain 2 of 2): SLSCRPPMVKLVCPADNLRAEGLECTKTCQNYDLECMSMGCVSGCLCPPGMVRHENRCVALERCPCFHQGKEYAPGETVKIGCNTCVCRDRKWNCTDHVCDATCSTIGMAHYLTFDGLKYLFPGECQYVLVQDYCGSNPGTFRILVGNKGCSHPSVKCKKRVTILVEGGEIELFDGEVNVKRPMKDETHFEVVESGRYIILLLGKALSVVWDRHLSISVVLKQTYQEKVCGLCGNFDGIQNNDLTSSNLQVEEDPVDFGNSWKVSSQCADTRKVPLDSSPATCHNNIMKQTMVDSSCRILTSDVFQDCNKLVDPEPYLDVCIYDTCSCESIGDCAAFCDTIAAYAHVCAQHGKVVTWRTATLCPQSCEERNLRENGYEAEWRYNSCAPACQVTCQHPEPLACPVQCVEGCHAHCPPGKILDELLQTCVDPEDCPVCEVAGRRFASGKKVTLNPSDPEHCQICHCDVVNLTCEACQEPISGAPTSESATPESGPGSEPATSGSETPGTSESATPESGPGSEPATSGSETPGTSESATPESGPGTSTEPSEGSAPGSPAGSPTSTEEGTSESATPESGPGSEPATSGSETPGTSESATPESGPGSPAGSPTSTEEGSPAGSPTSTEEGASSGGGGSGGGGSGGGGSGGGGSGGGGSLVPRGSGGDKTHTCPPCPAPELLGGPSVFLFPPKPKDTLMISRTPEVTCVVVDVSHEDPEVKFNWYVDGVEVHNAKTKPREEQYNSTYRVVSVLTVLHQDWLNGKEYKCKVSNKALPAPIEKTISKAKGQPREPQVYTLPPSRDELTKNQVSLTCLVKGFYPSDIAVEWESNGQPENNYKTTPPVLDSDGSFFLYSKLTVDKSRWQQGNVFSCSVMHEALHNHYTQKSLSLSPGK

human α-thrombin was tested, and the “thrombin digestion, release of D′D3 from Fc (SDS-PAGE / western blot time course, FVIII:thrombin about 22:1, 37° C.)” value [1] was “Un-cleaved FVIII169/VWF057 remained after 15 minutes”, the “thrombin cleavage by mass spectroscopy (MS)” value [2] was “By MS, FVIII 169/VWF059 again showed better release of D′D3 from Fc as compared to VWF057” and the “thrombin digestion, release of D′D3 from Fc (SDS-PAGE / western blot time course, FVIII:thrombin about 22:1, 37° C.)” value [2] was “little to no detectable un-cleaved FVIII 169/VWF059 after 5 minutes”.
